Assay results taken from patent US20230210962A1, “CONDITIONING REGIMEN FOR TRANSPLANT” (Hansa Biopharma AB, priority 2020, published 2023).

Tests used:
[1] = biological target: Rabbit anti-thymocyte globulin (rATG) (rabbit); assay: cell-based or functional assay; conditions: scale: of 11 subjects with intact rATG remaining
[2] = tested on: rATG; assay: In vitro cleavage of rATG by imlifidase in post-dose sera (SDS-PAGE and Western blot); assay type: biochemical, rabbit; conditions: sera 96 hours post-imlifidase, 50 µg/mL rATG, 2 hours at 37° C
Method: (§1) FIG. 5. Mean imlifidase concentration vs. nominal time from dosing (N=15). Data BLQ are included in mean calculation as BLQ/2. SD indicated with bars. FIG. 6. In vitro cleavage of rATG by imlifidase over time. Columns indicate number of subjects with visible intact rATG on Western blot post-imlifidase (N=11).
(§2) The cleavage pattern of rATG was investigated with sera from healthy subjects (n=11) treated with 0.25 mg/kg imlifidase (EudraCT number: 2019-002770-31). Serum samples were incubated with a fixed, clinically relevant, concentration of 50 µg/mL rATG (commonly observed after a dose of 1.5 mg/kg), for 2 hours at 37° C. Serum samples were collected pre-imlifidase through 14 days post-imlifidase and were analyzed using SDS-PAGE and Western blot, developed with a goat anti-rabbit IgG, F(ab′)2 specific antibody to evaluate the cleavage of rATG. Imlifidase concentration was analyzed using a validated electroluminescence immunoassay based on MSD technology.

[3] = tested on: B6.CD45.2 donor bone marrow cells; assay: Short-term survival of donor BMC in sensitized recipients; assay type: in vivo, NOD mice; conditions: T cell-depleted NOD, enzyme 4 h prior to BMT, four hours post-BMT
Description: FIG. 2. EndoS-imlifidase reduces DSA-mediated killing of donor BMC in sensitized recipients. (A-C) Naive NOD mice were immunized with FVB splenocytes four weeks prior to the administration of EndoS-imlifidase. Sera were harvested prior to immunization, prior to and four hours after enzyme treatment. Representative histograms on the left are for DSA-IgG Fc (panel A), DSA-IgG1 Fc (panel B), DSA-IgG3 Fc (panel C) and DSA-IgG3 heavy chain (panel D) with sera at a 1:25 dilution. Mean fluorescence intensity (MFI) of DSA in the titrated sera is shown on the right. Mean±SEM are shown. Ratio paired t test was used to compare MFI of DSA before and after enzyme treatment at each serum dilution with *p<0.05, **p<0.01. (D) Schematic of the experiment shown in E-F. Naive NOD mice were immunized with B6.CD45.1 splenocytes four weeks prior to injection of T cell depleting mAbs. […] Splenocytes and bone marrow cells were analysed for the expression of MHC-I H-2K^b and CD45.2. […]
To determine the short-term survival of donor BMC in sensitized recipients, NOD mice that had been sensitized to B6.CD45.1 splenocytes were T cell-depleted (anti-CD4, 0.25 mg, anti-CD8, 0.25 mg, anti-CD90 0.3 mg, i.p.) two days prior to BMT and i.v. injected with EndoS and imlifidase 4 hours prior to BMT (80×10^6 B6.CD45.2 BMC via i.v. injection). Splenocytes and BMC were analyzed at 4 hours post BMC injection.

[4] = tested on: plasma IgG-pool; conditions: humans, cited from earlier work
[5] = Imlifidase serum concentration in healthy subjects; assay type: in vivo, human; conditions: 0.25 mg/kg imlifidase, 96 hours
Method: as §1, §2

[6] = tested on: anti-MHC-I H-2K^b mAb (mouse IgG2b) mediated killing of donor BMC; assay: In vivo EndoS mediated monoclonal DSA inhibition assay (NOD recipients); set-up: species or system NOD mice
Method: (§3) FIG. 1. EndoS inhibits monoclonal DSA mediated killing of donor bone marrow cells. Naive NOD (panel A-B) or B6.H-2^g7 (panel C-D) were given 30 µg EndoS and/or anti-H-2K^b mAb (10 µg or 100 µg) intravenously four hours prior to the infusion of a mixture of CFSE labeled NOD/CTV labeled B6 bone marrow cells (BMC; panel A-B) or CFSE labeled B6.H-2^g7/CTV labeled NOD.H-2^b BMC (panel C-D). Shown are experiment protocols for NOD (panel A) and B6.H-2^g7 (panel C). Shown are the ratios of dye labeled B6 to NOD cells (panel B) or NOD.H-2^b to B6.H-2^g7 cells (panel D) in the blood (left panels) collected one to three hours after bone marrow transplant (BMT), in host spleens (middle panels) and bone marrow (BM, right panels) collected at four hours after BMT. Mean±SEM are shown. Data were pooled from five (panel B) and four (panel D) independent experiments. Mann-Whitney U test (middle and right panels) was used for the comparisons shown; *p<0.05 and **p<0.01.
NOD or B6.H-2^g7 mice were i.v. injected with vehicle, anti-MHC-I H-2K^b (10 µg) alone, or a mixture of EndoS (30 µg) and anti-MHC-I H-2K^b (10 µg or 100 µg) as a pretreatment. EndoS and anti-H-2K^b were mixed right before injection. Four hours after this pretreatment, five million cells of a 1:1 mixture of carboxyfluorescein succinimidyl ester (CFSE) labeled NOD and cell trace violet dye (CTV) labeled B6 bone marrow cells (BMC) were i.v. injected into the pre-treated NOD mice. Similarly, a 1:1 mixture of CFSE labeled B6.H-2^g7 and CTV labeled NOD.H-2^b BMC were injected into pre-treated B6.H-2^g7 mice. Blood was collected at 1, 2, and 3 hours post cell administration and analyzed by flow cytometry. Splenocytes and BMC from one hind limb were collected from each mouse and analyzed at four hours post BMC injection.
To evaluate the effect of EndoS on inhibiting the antibody-mediated killing of donor BMC, DSA passive transfer experiments were performed. Of all DSA, anti-donor MHC or HLA antibodies are of most importance in the clinic. Therefore, naïve NOD mice were injected with mouse IgG2b antibodies targeting MHC-I K^b expressing cells, treated with EndoS or left untreated, and thereafter subjected to bone marrow transfer from B6 mice.

[7] = tested on: anti-MHC-I H-2K^b mAb (mouse IgG2b) mediated killing of donor BMC; assay: In vivo EndoS mediated monoclonal DSA inhibition assay (complement sufficient B6.H-2^g7 recipients); set-up: species or system B6.H-2^g7 mice; conditions: compared to NOD hosts
Method: as §3
NOD or B6.H-2^g7 mice were i.v. injected with vehicle, anti-MHC-I H-2K^b (10 µg) alone, or a mixture of EndoS (30 µg) and anti-MHC-I H-2K^b (10 µg or 100 µg) as a pretreatment. […] Blood was collected at 1, 2, and 3 hours post cell administration and analyzed by flow cytometry. Splenocytes and BMC from one hind limb were collected from each mouse and analyzed at four hours post BMC injection. […]

Work on “Imlifidase (IdeS, Immunoglobulin G-degrading enzyme of S. pyogenes)” yielded a cleavage of rATG in sera of imlifidase-treated subjects (SDS-PAGE and Western blot), 96 hours post-imlifidase [1] of 8.

B1: imlifidase: IdeS (Immunoglobulin G-degrading enzyme of S.pyogenes), IgG cysteine protease; mature sequence SEQ ID NO: 2 (protein)
chain: DSFSANQEIRYSEVTPYHVTSVWTKGVTPPANFTQGEDVFHAPYVANQGWYDITKTFNGKDDLLCGAATAGNMLHWWFDQNKDQIKRYLEEHPEKQKINFNGEQMFDVKEAIDTKNHQLDSKLFEYFKEKAFPYLSTKHLGVFPDHVIDMFINGYRLSLTNHGPTPVKEGSKDPRGGIFDAVFTRGDQSKLLTSRHDFKEKNLKEISDLIKKELTEGKALGLSHTYANVRINHVINLWGADFDSNGNLKAIYVTDSDSNASIGMKKYFVGVNSAGKVAISAKEIKEDNIGAQVLGLFTLSTGQDSWNQTN
modifications: Streptococcus pyogenes
In the case of B1, the “subjects in which complete cleavage of rATG was avoided” value [2] is reported as 8 of 11, the “B6.CD45.2 donor cells in BM” value [3] is reported as 0.15% and the “B6.CD45.2 donor cells in spleen” value [3] is reported as 0.46%. For the same molecule, the “cleavage of the entire plasma IgG-pool” value ([4]; after dosing with IdeS) was “within minutes”, the “time IgG levels in blood remain low” value ([4]; until newly synthesized IgG appeared) was “more than a week” and the “imlifidase serum concentration, individual variation” value [5] was less than 0.1 to 1.8 µg/mL. For the same molecule, the “imlifidase serum concentration, mean” value [5] was 0.5 µg/mL.

B2: EndoS: Endoglycosidase of S. pyogenes, IgG endoglycosidase; mature sequence SEQ ID NO: 90 (protein)
chain: EEKTVQVQKGLPSIDSLHYLSENSKKEFKEELSKAGQESQKVKEILAKAQQADKQAQELAKMKIPEKIPMKPLHGPLYGGYFRTWHDKTSDPTEKDKVNSMGELPKEVDLAFIFHDWTKDYSLFWKELATKHVPKLNKQGTRVIRTIPWRFLAGGDNSGIAEDTSKYPNTPEGNKALAKAIVDEYVYKYNLDGLDVDVEHDSIPKVDKKEDTAGVERSIQVFEEIGKLIGPKGVDKSRLFIMDSTYMADKNPLIERGAPYINLLLVQVYGSQGEKGGWEPVSNRPEKTMEERWQGYSKYIRPEQYMIGFSFYEENAQEGNLWYDINSRKDEDKANGINTDITGTRAERYARWQPKTGGVKGGIFSYAIDRDGVAHQPKKYAKQKEFKDATDNIFHSDYSVSKALKTVMLKDKSYDLIDEKDFPDKALREAVMAQVGTRKGDLERFNGTLRLDNPAIQSLEGLNKFKKLAQLDLIGLSRITKLDRSVLPANMKPGKDTLETVLETYKKDNKEEPATIPPVSLKVSGLTGLKELDLSGFDRETLAGLDAATLTSLEKVDISGNKLDLAPGTENRQIFDTMLSTISNHVGSNEQTVKFDKQKPTGHYPDTYGKTSLRLPVANEKVDLQSQLLFGTVTNQGTLINSEADYKAYQNHKIAGRSFVDSNYHYNNFKVSYENYTVKVTDSTLGTTTDKTLATDKEETYKVDFFSPADKTKAVHTAKVIVGDEKTMMVNLAEGATVIGGSADPVNARKVFDGQLGSETDNISLGWDSKQSIIFKLKEDGLIKHWRFFNDSARNPETTNKPIQEASLQIFNIKDYNLDNLLENPNKFDDEKYWITVDTYSAQGERATAFSNTLNNITSKYWRVVFDTKGDRYSSPVVPELQILGYPLPNADTIMKTVTTAKELSQQKDKFSQKMLDELKIKEMALETSLNSKIFDVTAINANAGVLKDCIEKRQLLKK
modifications: Streptococcus pyogenes
For B2, the “ratio of B6 to NOD cells in blood” value ([6]; 30 µg EndoS i.v. with 10 µg anti-K^b mAb vs mAb alone, one hour post-BMT, stable at two and three hours) was “significantly increased”, the “ratio of B6 to NOD cells in BM and spleen” value ([6]; EndoS with 10 µg anti-K^b mAb vs mAb only, four hours post-BMT) was “significant increase” and the “ratio of B6 to NOD cells in blood” value ([6]; EndoS with 100 µg anti-K^b mAb vs mAb alone, one and two hours post-BMT) was “increased ratio”. For the same molecule, the “ratio of B6 to NOD cells in blood” value ([6]; EndoS with 100 µg anti-K^b mAb, three hours post-BMT) was “did not last” and the “ratios of donor to recipient cells” value [7] was “improved”.
